This passage reports protein stability index results from the supplement of paper PMC10567573.

To fix the notation:
B1: LRRC45 (parent)
chain: DLSAANEKNLLLQNQVDELERKFR
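Note: lentivirally expressed fusions sorted by FACS into six bins by GFP to DsRed ratio, PSI derived from sequencing read proportions per bin multiplied by bin number.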

Variants of B1 are the subject of this series. The series is described as follows: protein stability index of a GFP-peptide fusion (GPS, HEK-293T) (PSI 1-6); higher = more stable. The following applies: c terminus: a fixed tail appended.
In the case of DLSAANEKNLLLTNQVDELERKFR, the protein stability index came out at 4.11.
Take DLSAANEKNLLLKNQVDELERKFR: the protein stability index came out at 4.32.
Next, DLSAANEKNLLLMNQVDELERKFR: 3.71.
Next, DLSAANWKNLLLQNQVDELERKFR: 2.72; DLSAANYKNLLLQNQVDELERKFR: 2.98; DLSAANIKNLLLQNQVDELERKFR: 3.2.
Next, DLSAANLKNLLLQNQVDELERKFR: 2.96.
DLSAANEKNLLLQNQVDRLERKFR: the protein stability index amounted to 2.96.
Next, DLSAANEKNLLLQNQVDSLERKFR: 3.33.
Next, DLSAANEKNLLLQNQVDNLERKFR: 3.56.
With DLSAANEKNLLLQNQVDQLERKFR, the protein stability index amounted to 3.56.
Next, DLSAANEKNLLLQNQVDMLERKFR: 3.23.
Next, DLSAANEKNLLLQNQVDGLERKFR: 3.67; DLSAANEKNLLLQNQVDDLERKFR: 5.06; DLSAANEKNLLLQNQVDPLERKFR: 3.91.
Next, DLSAANEKNLLLQNQVDYLERKFR: 3.26; DLSAANEKNLLLQGQVDELERKFR: 4.11.
DLSAANEKNLLLQQQVDELERKFR: the protein stability index is 4.49.
With DLSAANEKNLLLQCQVDELERKFR the figure was 4.
Next, DLSAANEKNLLLQKQVDELERKFR: 3.69; DLSAANEKNLLLQTQVDELERKFR: 3.81.
Next, DLSAANEKNLLLQYQVDELERKFR: 3.65; RLSAANEKNLLLQNQVDELERKFR: 4.41.
In the case of ILSAANEKNLLLQNQVDELERKFR, the protein stability index is 3.93.
Next, QLSAANEKNLLLQNQVDELERKFR: 4.21; SLSAANEKNLLLQNQVDELERKFR: 4.25; ALSAANEKNLLLQNQVDELERKFR: 4.6.
Next, FLSAANEKNLLLQNQVDELERKFR: 4.09.
Next, WLSAANEKNLLLQNQVDELERKFR: 3.75; HLSAANEKNLLLQNQVDELERKFR: 4.42.
DLSAANEKNLLLQNQVYELERKFR: the protein stability index came to 3.23.
With DLSAANEKNLLLQNQVAELERKFR the figure was 3.58; with DLSAANEKNLLLQNQVGELERKFR, 3.46; with DLSAANEKNLLLQNQVFELERKFR, 2.81.
Next, DLSAANEKNLLLQNQVIELERKFR: 3.01; DLSAANEKNLLLQNQVNELERKFR: 3.52; DLSAANEKNLLLQNQVEELERKFR: 4.39.
With DLSAANEKNLLLQNQVHELERKFR the figure was 2.99; with DLSAANEKNPLLQNQVDELERKFR, 4.75; with DLSAANEKNRLLQNQVDELERKFR, 4.06.
As to DLSAANEKNTLLQNQVDELERKFR, the protein stability index came to 4.26.
With DLSAANEKNFLLQNQVDELERKFR the figure was 3.94; with DLSAANEKNYLLQNQVDELERKFR, 3.71.
With DLSAANEKNELLQNQVDELERKFR the figure was 4.94.
Next, DLSAANEKNKLLQNQVDELERKFR: 4; DLSAANEKNQLLQNQVDELERKFR: 4.51; DLSAANEKNVLLQNQVDELERKFR: 4.39.
With DLSAANEKNILLQNQVDELERKFR, the protein stability index is 3.58.
Next, DLSAANEKNMLLQNQVDELERKFR: 4.09; DLSAANEKNLLCQNQVDELERKFR: 4.31.
With DLSAANEKNLLQQNQVDELERKFR the figure was 4.19; with DLSAANEKNLLEQNQVDELERKFR, 4.61.
Regarding DLSAANEKNLLNQNQVDELERKFR, the protein stability index was 4.01.
With DLSAANEKNLLMQNQVDELERKFR the figure was 3.87.
With DLSAANEKNLLDQNQVDELERKFR the figure was 4.46.
With DLSAANEKNLLSQNQVDELERKFR the figure was 4.03; with DLSAANEKNLLLQNQVDERERKFR, 3.68.
DLSAANEKNLLLQNQVDEKERKFR: the protein stability index is 3.92.
With DLSAANEKNLLLQNQVDEQERKFR the figure was 3.99.
In the case of DLSAANEKNLLLQNQVDEEERKFR, the protein stability index was determined as 4.57.
With DLSAANEKNLLLQNQVDETERKFR the figure was 4.34; with DLSAANEKNLLLQNQVDEFERKFR, 3.76.
With DLSAANEKNLLLQNQVDESERKFR the figure was 4.34; with DLSAANEKNLLLQNQVDEWERKFR, 3.75.
With DLSAANEKNLLLQNQVDEIERKFR the figure was 4.24; with DLSAAEEKNLLLQNQVDELERKFR, 4.69; with DLSAACEKNLLLQNQVDELERKFR, 4.59.
For DLSAADEKNLLLQNQVDELERKFR, the protein stability index was 5.02.
With DLSAAWEKNLLLQNQVDELERKFR the figure was 3.37; with DLSAAVEKNLLLQNQVDELERKFR, 4.38.
Turning to DLSAAMEKNLLLQNQVDELERKFR, the protein stability index is 3.97.
Next, DLNAANEKNLLLQNQVDELERKFR: 4.07; DLFAANEKNLLLQNQVDELERKFR: 3.49.
Next, DLEAANEKNLLLQNQVDELERKFR: 4.86.
As for DLKAANEKNLLLQNQVDELERKFR, the protein stability index was determined as 4.15.
Next, DLRAANEKNLLLQNQVDELERKFR: 4.26; DLAAANEKNLLLQNQVDELERKFR: 4.44; DLSTANEKNLLLQNQVDELERKFR: 4.06.
Take DLSLANEKNLLLQNQVDELERKFR: the protein stability index was 3.06.
With DLSMANEKNLLLQNQVDELERKFR the figure was 3.49.
With DLSYANEKNLLLQNQVDELERKFR the figure was 3.91.
Next, DLSFANEKNLLLQNQVDELERKFR: 3.61.
DLSSANEKNLLLQNQVDELERKFR: the protein stability index is 4.05.
Next, DLSAANEKVLLLQNQVDELERKFR: 4.12; DLSAANEKDLLLQNQVDELERKFR: 4.91.
With DLSAANEKILLLQNQVDELERKFR the figure was 4.21.
In the case of DLSAANEKELLLQNQVDELERKFR, the protein stability index turned out to be 4.89.
Next, DLSAANEKWLLLQNQVDELERKFR: 3.79; DLSAANEKTLLLQNQVDELERKFR: 4.59.
With DLSAANEKLLLLQNQVDELERKFR the figure was 3.54; with DLSAANEKMLLLQNQVDELERKFR, 4.24.
With DLSAANEKYLLLQNQVDELERKFR the figure was 3.67; with DLSAANEKQLLLQNQVDELERKFR, 4.57.
Consider DLSAANEKRLLLQNQVDELERKFR, for which the protein stability index was 4.02.
